Substrate: CC(C)=CCC/C(C)=C/COP(=O)(O)OP(=O)(O)O
Assay: GC-MS of products after CIAP dephosphorylation, Michaelis-Menten fit
Assay type: biochemical, Cinnamomum burmanni
Settings: 50 mM HEPES pH 7.2, 10 mM MgCl2, 5 mM DTT, 30 °C, 3 min, 0.125-150 μM GPP

B1: CbTPS1 (Cinnamomum burmanni) (protein)
chain: MALQMTVPFLSSFLPNPRHRPTAHGFIPQERVSKHISCSTTTPTYSTTVPRRSGNYKPSIWDYDFVQSLVSDYKVEAHGTRVEKLKEVVKNLLKETDSSLAQMELIDSLHRLGVRWLFENEIKQVLYTVSSDNTSIEMKKDLHAVSTRFRLLRQHGFKVSTDVFNDFEDEKGCFKPSLSMDIKGMLSLYEASHLAFQGETILDEARAFTHAHLMGIKENIDPIIHKKVEHALDMPLHWRLEKLEARWYMDMYMREEGMNSSLLELAMLHFNIVQATFQTNLKSLSRWWKDLGLGEQLSFSRDRLVECFFWAAAMTSEPQFGRCQEAVAKVVQLTTTIDDIYDVYGTVDELELFTNAVDRWDLEAMEQLPEYMKTCFLALYNSINEIGYGILKEQGRNVIPYLRNAWTELCKAYLVEAKWYSSGYTPMLEEFLQTSWISVGSLPMQTYAFALLGQNLAPESCDFAEQISDILPLAGMLIRFPDDLGTSLDELKRGDVPKSIQCYMHEAGVTEDVARDHIMGLFRETWKKLNEYLVESSIPHAFIDQAMNLGRVSYCTYKHGDGFSDGFGDPGSQEKKMYMSLFVEPIQVDEAKGISFCVDGGYA
  Km: 5.11 ± 1.70 µM
  kcat: 0.01 s^–1

— publication PMC7905068, “Bornyl Diphosphate Synthase From Cinnamomum burmanni and Its Application for (+)-Borneol Biosynthesis in Yeast” (Frontiers in Bioengineering and Biotechnology, 2021)
